The data set concerns ATP. Nature of the data set: switch fluorescence ratio, 500 uM ATP over buffer (Cy3 cluster intensity, sum of 5 cycles each) (fold (ratio)); higher = stronger signal-on switching upon ATP binding; sequences stand for … in TCGTCGGCAGCGTCAGATGTGTATAAGAGACAGTTTTTTTTTTTTTTTTTTTTTTTTT…TC. To be noted: aptamer strand: ATP DNA aptamer (quencher-CACCTGGGGGAGTATTGCGGAGGAAGG + anchor), 100 nM annealed; ATP concentration: 500 uM. An outline of the steps: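 Switching-strand clusters labelled with Cy3 on a modified Illumina MiSeq flow-cell were annealed to 100 nM quencher-labelled ATP aptamer, imaged in selection buffer, and re-imaged after 15 min with 500 uM ATP at 22 °C. This was done over five cycles with NaOH stripping and re-annealing in between. The fluorescence ratio is summed target-cycle over summed buffer-cycle Cy3 intensity per cluster, averaged per switch-domain sequence, excluding clusters outside 100-1000 RFU.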

In the supplement of paper PMC10126150 one finds switch fluorescence ratio data, which are given here for 120 sequences.

± gives the standard deviation of the averaged measurements.
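Note: ATP exposure 15 min at 22 °C before imaging.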

Take GGTTTAGAGA: the switch fluorescence ratio was 1.02 ± 0.069.
In the case of CGGCAGAGGG it was 1.02 ± 0.022; in that of CCGTCGGTCG, 1 ± 0.023; in that of TGGGGTGGTG, 0.9992 ± 0.0038.
Next, ACCGCGAAGG: 1.025 ± 0.0058; GGCGATACTA: 1.92 ± 0.11.
In the case of GCCTTAGAGT it was 1.03 ± 0.051; in that of GAGATAGGGT, 1.03 ± 0.013.
GGGGCTTCTG: the switch fluorescence ratio worked out at 1.03 ± 0.019.
In the case of AGAGTGGTGG it was 0.9769 ± 0.0097.
With GTGAAACGGT, the switch fluorescence ratio came out at 1.03 ± 0.043.
Take TCCTTGGCTT: the switch fluorescence ratio was 1.47 ± 0.49.
Take GCGGATTAGG: the switch fluorescence ratio stood at 1.03 ± 0.0072.
Consider GATGTTATCG, for which the switch fluorescence ratio stood at 0.99 ± 0.015.
In the case of GATGTTGTGA, the switch fluorescence ratio worked out at 0.9999 ± 0.0076.
Next, GACTTTGGGG: 1 ± 0.013; ATTTGAAGGC: 0.9629 ± 0.0082.
In the case of TATTGATAGC, the switch fluorescence ratio was found to be 1.014 ± 0.0083.
Next, GATCCACGTG: 1.03 ± 0.015.
Next, TTAGTAAGGT: 1.01 ± 0.059; GCGGGGAATT: 1.02 ± 0.026.
Take GGCAATCCCA: the switch fluorescence ratio is 1.03 ± 0.012.
In the case of CCAGGTCGAC it was 1.02 ± 0.063; in that of GATTTGGTTG, 0.963 ± 0.026.
In the case of ACAGCAGTTG it was 1.04 ± 0.042.
TTTGCAAAGG: the switch fluorescence ratio was 1.007 ± 0.0022.
In the case of TTTGGAGACT it was 1.03 ± 0.02; in that of TAGCAATTAT, 1.81 ± 0.085.
In the case of TTTAGTGAAC, the switch fluorescence ratio is 1.025 ± 0.0089.
In the case of TTCAAAACGT it was 1.04 ± 0.017.
On to TGCCGTGGGT, for which the switch fluorescence ratio was 0.987 ± 0.04.
As for TTGTTATATT, the switch fluorescence ratio came to 0.983 ± 0.026.
In the case of ATTATTAGTC it was 1.01 ± 0.022; in that of GCTCTTGATG, 0.98 ± 0.041; in that of TATTTCGTGG, 0.985 ± 0.024.
Next, TTTTTAATGG: 1.01 ± 0.034; GTGGGGGGCA: 0.991 ± 0.033; AGGGGTGGAG: 1.02 ± 0.006.
In the case of TATTCCGCC it was 2.29 ± 0.033; in that of TGGCCGGCTT, 1.044 ± 0.0066; in that of TGCGGGGGAG, 0.996 ± 0.02.
GGTGAGAAGT: the switch fluorescence ratio was determined as 1.01 ± 0.013.
In the case of CGGGGTGCAC it was 1.05 ± 0.023.
For GGGGGGGGCT, the switch fluorescence ratio worked out at 1 ± 0.045.
Next, CATTAACGGG: 1.02 ± 0.013; TTGGGCAACA: 1.05 ± 0.079.
Take GGGGGATTAC: the switch fluorescence ratio was 1.06 ± 0.083.
Next, TACACCGTCA: 1.08 ± 0.023; ATTAGGGTTA: 0.9928 ± 0.0088; TTTACGTAGT: 1.03 ± 0.019.
Next, AGTTTATCTG: 1.01 ± 0.04; GTCATCATGG: 0.986 ± 0.044; GGGGGAACAG: 0.991 ± 0.011.
Next, CCGAGATTGC: 1.95 ± 0.14; TTTTAGGTTC: 1.01 ± 0.018; TTTTTCTAAA: 0.9834 ± 0.0074.
With AGATGCCGAC, the switch fluorescence ratio stood at 1.02 ± 0.054.
In the case of AAAGTAGGAG it was 0.98 ± 0.048; in that of GATTTGGCTC, 1 ± 0.031.
Regarding GTTTTATCCG, the switch fluorescence ratio was 1.025 ± 0.0045.
In the case of TTCGGGGTTA, the switch fluorescence ratio is 1.01 ± 0.018.
In the case of CTGGGACCAG, the switch fluorescence ratio worked out at 1.019 ± 0.007.
For ACGTAGTTTG, the switch fluorescence ratio worked out at 1.04 ± 0.033.
Next, TAGGTCCCGG: 0.996 ± 0.032.
In the case of CGATTGGGTA, the switch fluorescence ratio was determined as 0.968 ± 0.038.
In the case of CAATACAGTC it was 1.03 ± 0.011; in that of AGGGTATGTT, 0.9682 ± 0.004.
In the case of TTTTTTATAA it was 1.01 ± 0.023.
In the case of AAGGGTAACA it was 0.991 ± 0.019; in that of TGGGTGGGAT, 1.002 ± 0.009.
In the case of GGCAATATGT, the switch fluorescence ratio turned out to be 1.24 ± 0.077.
CGGGTTTGTC: the switch fluorescence ratio was 1 ± 0.035.
In the case of CGGCTGGGCT it was 0.988 ± 0.024.
As for GGCGTAGCTT, the switch fluorescence ratio is 1.01 ± 0.051.
Turning to GATGTTTAGT, the switch fluorescence ratio stood at 1.04 ± 0.018.
Take GGAGCTAGGG: the switch fluorescence ratio turned out to be 1.056 ± 0.0058.
For the sequence ATGTGGTACT, the switch fluorescence ratio stood at 0.979 ± 0.027.
With TCGGAGGTCC, the switch fluorescence ratio was determined as 0.958 ± 0.029.
Take AATGGCACAG: the switch fluorescence ratio stood at 1.01 ± 0.015.
For the sequence GCTCGCAGAT, the switch fluorescence ratio amounted to 1.21 ± 0.042.
Next, AATGGGTTGA: 0.9743 ± 0.0053; GGAGAGAAAG: 0.9866 ± 0.0024; AGAGGTGTGG: 0.991 ± 0.05.
As to TCTTGATCTA, the switch fluorescence ratio amounted to 1.015 ± 0.0098.
For GGCCGACTTG, the switch fluorescence ratio amounted to 1 ± 0.043.
With AGGTTGTTCT, the switch fluorescence ratio stood at 0.967 ± 0.035.
Next, GGGGAGCGGC: 1.02 ± 0.0027; GGGGATGCGG: 1.02 ± 0.021; AGAGTTTGAA: 1.02 ± 0.024.
Next, TGGATTACTT: 1.02 ± 0.026.
Turning to TTGTGTGTCA, the switch fluorescence ratio is 0.994 ± 0.022.
As for ATTCGCATGT, the switch fluorescence ratio is 1.15 ± 0.04.
Next, CTGTATAAGT: 0.985 ± 0.015.
Turning to TCAGAGGGCA, the switch fluorescence ratio stood at 1 ± 0.053.
Next, ATTGTAGAGC: 1.02 ± 0.01; GGAAACCCGC: 1.14 ± 0.071; AAGGTTGATG: 0.982 ± 0.02.
In the case of TCGAAGGGCG it was 1.021 ± 0.0057; in that of AGAGGGACAT, 1.09 ± 0.1; in that of AGGCGCCGCA, 1.01 ± 0.018.
Consider TGTCCTGGCT, for which the switch fluorescence ratio came to 1.02 ± 0.067.
For TTTGATTCAC, the switch fluorescence ratio came out at 1.02 ± 0.041.
In the case of CCGGGGGAAG it was 1.04 ± 0.035; in that of GACTAAAGGT, 1.01 ± 0.013.
In the case of AAAGTTACTG it was 1.03 ± 0.077; in that of AAAGGGTTCG, 1 ± 0.034; in that of TCTGTTGACG, 1.0236 ± 0.00081.
Next, ATCAGGGGTT: 1.34 ± 0.6.
On to CTTTTTTTGT, for which the switch fluorescence ratio worked out at 0.995 ± 0.025.
Next, GGCATTAAAG: 0.9841 ± 0.0078; TTTATTGGGA: 1.07 ± 0.13; CAAAGTAAAA: 1.04 ± 0.054.
On to CAATCAATCG, for which the switch fluorescence ratio worked out at 1.05 ± 0.017.
For the sequence TTTTAAGAGA, the switch fluorescence ratio was found to be 1.01 ± 0.017.
On to TTTTATTCGT, for which the switch fluorescence ratio stood at 1.01 ± 0.025.
Next, AGGGGGTCAC: 1 ± 0.026; TGCCCGCCCT: 1.08 ± 0.065.
On to GTGGGAGGGG, for which the switch fluorescence ratio came to 1 ± 0.015.
Next, AAAATCGGTG: 1.01 ± 0.068.
Next, ATCCAAATGG: 1.01 ± 0.033.
